Assay results: patent publication US20240376185A1 (SMIVET B V, published 2024)

Key:
[1] = target: T1, tetanus neurotoxin (TeNT), authentic tetanus holotoxin (Clostridium tetani, UniProt P04958 2-1315); assay: cell-based or functional assay
[2] = target: T1, tetanus neurotoxin (TeNT), authentic …; assay: GT1b-TeNT inhibition ELISA
Target sequence in this assay (P04958 2-457 limits assumed, chain 1 of 2): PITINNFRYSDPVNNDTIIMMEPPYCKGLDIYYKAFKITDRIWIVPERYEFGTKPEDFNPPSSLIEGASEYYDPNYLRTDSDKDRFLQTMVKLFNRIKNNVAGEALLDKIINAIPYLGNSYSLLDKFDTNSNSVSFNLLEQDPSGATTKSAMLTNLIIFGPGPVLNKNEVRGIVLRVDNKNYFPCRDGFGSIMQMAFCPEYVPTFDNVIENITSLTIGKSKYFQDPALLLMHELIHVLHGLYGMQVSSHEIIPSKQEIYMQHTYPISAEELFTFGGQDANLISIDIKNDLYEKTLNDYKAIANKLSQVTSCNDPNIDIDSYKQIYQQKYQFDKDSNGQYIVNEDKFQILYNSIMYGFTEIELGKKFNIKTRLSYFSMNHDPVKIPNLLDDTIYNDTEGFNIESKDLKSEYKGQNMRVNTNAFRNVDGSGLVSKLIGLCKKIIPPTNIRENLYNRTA
Target sequence in this assay (P04958 458-1315 limits assumed, chain 2 of 2): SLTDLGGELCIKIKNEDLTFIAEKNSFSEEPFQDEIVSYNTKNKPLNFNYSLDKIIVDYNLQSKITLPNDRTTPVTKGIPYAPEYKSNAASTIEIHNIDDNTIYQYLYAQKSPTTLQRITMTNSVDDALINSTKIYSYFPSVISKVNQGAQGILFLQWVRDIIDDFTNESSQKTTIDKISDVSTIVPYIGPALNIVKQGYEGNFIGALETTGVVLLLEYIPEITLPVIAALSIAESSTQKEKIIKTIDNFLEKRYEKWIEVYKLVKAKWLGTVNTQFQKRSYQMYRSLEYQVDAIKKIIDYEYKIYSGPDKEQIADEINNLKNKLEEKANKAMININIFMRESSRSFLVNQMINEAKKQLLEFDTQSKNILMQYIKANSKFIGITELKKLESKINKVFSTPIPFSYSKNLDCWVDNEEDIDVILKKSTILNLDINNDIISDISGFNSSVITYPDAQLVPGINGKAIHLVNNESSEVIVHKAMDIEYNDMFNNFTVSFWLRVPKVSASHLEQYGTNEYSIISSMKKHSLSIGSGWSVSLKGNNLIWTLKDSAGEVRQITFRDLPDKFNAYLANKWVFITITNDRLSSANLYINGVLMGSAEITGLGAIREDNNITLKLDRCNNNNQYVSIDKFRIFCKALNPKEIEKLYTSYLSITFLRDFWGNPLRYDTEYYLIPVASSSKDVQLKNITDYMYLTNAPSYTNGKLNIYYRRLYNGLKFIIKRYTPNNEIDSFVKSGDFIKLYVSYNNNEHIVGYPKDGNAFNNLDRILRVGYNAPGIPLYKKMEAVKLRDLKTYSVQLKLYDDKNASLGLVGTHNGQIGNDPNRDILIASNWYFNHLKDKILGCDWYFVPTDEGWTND

[3] = target: T1, tetanus neurotoxin (TeNT), authentic …; assay: GT1b-TeNT inhibition ELISA; remark: listed apart in the source
Target sequence in this assay (P04958 2-457 limits assumed, chain 1 of 2): as the sequence (P04958 2-457 limits assumed, chain 1 of 2) above
Target sequence in this assay (P04958 458-1315 limits assumed, chain 2 of 2): as the sequence (P04958 458-1315 limits assumed, chain 2 of 2) above

[4] = target: dog IgG (chrompure dog IgG) (dog)
[5] = target: dog IgG (chrompure dog IgG) (dog); remark: listed apart in the source
[6] = target: T1, tetanus neurotoxin (TeNT), authentic …; assay: ELISA: directly coated TeNT, anti-his6 PO
Target sequence in this assay (P04958 2-457 limits assumed, chain 1 of 2): as the sequence (P04958 2-457 limits assumed, chain 1 of 2) above
Target sequence in this assay (P04958 458-1315 limits assumed, chain 2 of 2): as the sequence (P04958 458-1315 limits assumed, chain 2 of 2) above

[7] = target: T1, tetanus neurotoxin (TeNT), authentic …; assay: ELISA: directly coated TeNT, anti-his6 PO; remark: listed apart in the source
[8] = target: T1, tetanus neurotoxin (TeNT), authentic …; assay: ELISA: directly coated TeNT, goat anti-llama Ig PO
Target sequence in this assay (P04958 2-457 limits assumed, chain 1 of 2): as the sequence (P04958 2-457 limits assumed, chain 1 of 2) above
Target sequence in this assay (P04958 458-1315 limits assumed, chain 2 of 2): as the sequence (P04958 458-1315 limits assumed, chain 2 of 2) above

[9] = target: T1, tetanus neurotoxin (TeNT), authentic …; assay: ELISA: directly coated TeNT, goat anti-llama Ig PO; remark: listed apart in the source
Target sequence in this assay (P04958 2-457 limits assumed, chain 1 of 2): as the sequence (P04958 2-457 limits assumed, chain 1 of 2) above
Target sequence in this assay (P04958 458-1315 limits assumed, chain 2 of 2): as the sequence (P04958 458-1315 limits assumed, chain 2 of 2) above

[10] = target: T1, tetanus neurotoxin (TeNT), authentic …; assay: bridging ELISA: coated dog IgG, SDA, biotinylated TeNT, StrepPO
Target sequence in this assay (P04958 2-457 limits assumed, chain 1 of 2): as the sequence (P04958 2-457 limits assumed, chain 1 of 2) above
Target sequence in this assay (P04958 458-1315 limits assumed, chain 2 of 2): as the sequence (P04958 458-1315 limits assumed, chain 2 of 2) above

[11] = target: T1, tetanus neurotoxin (TeNT), authentic …; assay: as above; remark: listed apart in the source
[12] = target: T1, tetanus neurotoxin (TeNT), authentic …; assay: BLI (Octet Red96): biotinylated TeNT on SA sensor, SDA as analyte
[13] = target: T1, tetanus neurotoxin (TeNT), authentic …; assay: bridging ELISA: coated TeNT, SDA, biotinylated TeNT, StrepPO (bivalent binding)
[14] = target: T1, tetanus neurotoxin (TeNT), authentic …; assay: as above; remark: listed apart in the source

| Binder | Endpoint dilution factor [1] | Potency IU/mg [1] [IU/mg] | SDA concentration providing full protection [1] [nM] | minimal absorbance value (GT1b-TeNT inhibition) [2] [A450] | Effective SDA Concentration at A450 0.56 [3] [ng/mL] | maximal absorbance value [4] [A450] | Effective SDA Concentration at A450 0.2 [5] [ng/mL] | maximal absorbance value [6] [A450] | Effective SDA Concentration at A450 0.15 [7] [ng/mL] | maximal absorbance value [8] [A450] | Effective SDA Concentration at A450 0.15 [9] [ng/mL] | maximal absorbance value [10] [A450] | Effective SDA Concentration at A450 0.3 [11] [ng/mL] | Kd [12] [nM] | koff [12] [s⁻¹] | kon [12] [M⁻¹ s⁻¹] | maximal absorbance value [13] [A450] | Effective SDA Concentration at A450 0.3 [14] [ng/mL] |
| --- | --- | --- | --- | --- | --- | --- | --- | --- | --- | --- | --- | --- | --- | --- | --- | --- | --- | --- |
| SVT06-GS2-SVG13M4-H6 (bispecific antibody) QVQLQESGGGSVQAGGSLRLSCTASELSYDDYTIAWFRRAAGEGRVEDGEGVASITKSYDRAYDNKINYGHSVKGRFTISRDNAKNTVYLQMTDLLPSDTAVYYCALDITPPGGVGASLTEGFLFDYWGQGTQVTVSSGGGGSGGGSEVQLVESGGGLVQPGGSLRLSCEASGFTFDDYGMSWVRQAPGKGLEWVSSLTPNGGSTYYADSVKGRFTISRDNAKNTLYLQMNSLKPEDTALYYCAKNSYYGAMDYWGQGTQVTVSSHHHHHH | 2.4 | 1.04 | 1000 | 0.22 | 93 | 1.18 | 46 | 1.44 | 3.4 | 1.2 | 2 | 1.61 | < 0.49 | 0.123 | 8.24e-05 | 670000 | 0.98 | 9.6 |
| SVT15-3FW4M-GS2-SVG06M4-H6 (bispecific antibody) QVQLQESGGGLVQTGGSLRLSCRASGRAFANYHFGWFRQAPGKDREFVASISWKGGSTYYANFALGRFTSSVDRAESSVYLQMSGLTPEDTATYYCAAHDGGDWNYHTGMDYWGQGTQVTVSSGGGGSGGGSEVQLVESGGALVQPGGSLRLSCAASGFPFSAYDMTWVRQAPGQGLEWVSTIHKSGGITTYADSVKGRFTISRDNAKNTLYLQMNNLESEDTAVYYCAKALRAHNSDYVGRNALGSWGQGTQVTVSSHHHHHH | – | – | – | 0.12 | 131 | 0.07 | – | 0.37 | 37 | 1.23 | 4.3 | 1.3 | 8.3 | – | – | – | 0.29 | > 1000 |
| SVT02-GS2-SVG13M4-H6 (bispecific antibody) QVQLQQSGGGSVQAGGSLRLSCVGPQRTFSTYGMGWFRQAPGKEREFVAGINYKGDTTYYADSVKGRFTISRDNAKNTLYLQMDSLKPEDRAVYQCARKGGLGGDYRDAGQYRYWGQGTQVTVSSGGGGSGGGSEVQLVESGGGLVQPGGSLRLSCEASGFTFDDYGMSWVRQAPGKGLEWVSSLTPNGGSTYYADSVKGRFTISRDNAKNTLYLQMNSLKPEDTALYYCAKNSYYGAMDYWGQGTQVTVSSHHHHHH | < 1 | – | > 1000 | 0.77 | > 1000 | 0.18 | – | 0.06 | > 1000 | 0.09 | > 1000 | 1.32 | 9.1 | 0.0987 | 0.000121 | 1.23e+06 | 0.19 | > 1000 |
| SVT15-3FW4M-GS2-SVG13M4-H6 (bispecific antibody) QVQLQESGGGLVQTGGSLRLSCRASGRAFANYHFGWFRQAPGKDREFVASISWKGGSTYYANFALGRFTSSVDRAESSVYLQMSGLTPEDTATYYCAAHDGGDWNYHTGMDYWGQGTQVTVSSGGGGSGGGSEVQLVESGGGLVQPGGSLRLSCEASGFTFDDYGMSWVRQAPGKGLEWVSSLTPNGGSTYYADSVKGRFTISRDNAKNTLYLQMNSLKPEDTALYYCAKNSYYGAMDYWGQGTQVTVSSHHHHHH | 2.8 | 1.21 | 500 | 0.13 | 77 | 1 | 63 | 1.51 | 4.9 | 1.16 | 2 | 1.47 | 2.2 | 0.0158 | 6.77e-06 | 429000 | 0.78 | 23 |
